We go through two molecules from article PMC10081965 (Structure (London, England : 1993), 2023).

The target of one assay is UBQLN2 (UniProt Q9UHD9 1-624). The experiment in a line: recruitment to biomolecular condensates in vitro.
For the next assay, the target named is UBQLN2 UBL (26–103) (UniProt Q9UHD9 26-103). The experiment in a line: NMR titration.
UBQLN2 UBL (26–103), sequence (Q9UHD9 26-103): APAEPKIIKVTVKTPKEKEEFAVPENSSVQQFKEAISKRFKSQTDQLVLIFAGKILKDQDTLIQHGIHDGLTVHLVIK

B1: AZUL-mEGFP (E6AP isoform II 24–87 with a C-terminal mEGFP) (domain or fragment, UniProt Q05086 24-87, looked up)
chain: MKRAAAKHLIERYYHQLTEGCGNEACTNEFCASCPTFLRMDNNAAAIKALELYKINAKLCDPHP
With B1, the binding result with UBQLN2 was “binds”.

B2: UBQLN1 (514–589, F547Y) (domain or fragment, UniProt Q9UMX0 514-589, looked up)
chain: TAGTTEPGHQQFIQQMLQALAGVNPQLQNPEVRYQQQLEQLSAMGFLNREANLQALIATGGDINAAIERLLGSQPS
In the case of B2, in the assay with UBQLN2 UBL (26–103), the binding result was “binds”.
